# Laboratory results published in paper doi:10.1101/402123 (bioRxiv, 2018).
# Numbering of substitutions follows the chain as printed. In names and notes the source's numbering stands. No end group written: not given here. fluorescein = N-terminal fluorescein label
# B1: integrin β4 1436-1666 (β4-CS-FnIII-3,4) (domain or fragment, human, UniProt P16144-2 1436-1666, looked up)
# chain: LPRDYSTLTSVSSHDSRLTAGVPDTPTRLVFSALGPTSLRVSWQEPRCERPLQGYSVEYQLLNGGELHRLNIPNPAQTSVVVEDLLPNHSYVFRVRAQSQEGWGREREGVITIESQVHPQSPLCPLPGSAFTLSTPSAPGPLVFTALSPDSLQLSWERPRRPNGDIVGYLVTCEMAQGGGPATAFRVDGDSPESRLTVPGLSENVPYKFKVQARTTEGFGPEREGIITIES
# B2: BP230 10-162 S46A (domain or fragment, human, UniProt Q03001-8 10-162, looked up)
# chain: SSDSVFSNTTSTRTSLDSNENLLLVHCGPTLINSCIAFGSESFDGHRLEMLQQIANRVQRDSVICEDKLILAGNALQSDSKRLESGVQFQNEAEIAGYILECENLLRQHVIDVQILIDGKYYQADQLVQRVAKLRDEIMALRNECSSVYSKGR
# modifications: Oregon Green 488 on thiol groups
# B3: β4-CS-FnIII-3,4 (1436-1666) I1661R/T1663R (domain or fragment, human, UniProt P16144-2 1436-1666, looked up)
# chain: B1 chain with I226R, T228R
# B4: β4-CS-FnIII-3,4 (1436-1666) P1576R (domain or fragment, human, UniProt P16144-2 1436-1666, looked up)
# chain: B1 chain with P141R
# B5: fluorescein-labeled BP230 peptide 26-55 (peptide, UniProt Q03001-8 26-55, looked up)
# peptide: fluorescein-DSNENLLLVHCGPTLINSCISFGSESFDGH
# modifications: cysteine pairing not given here
# Key:
# [1] = molecular target: T1, β4-FnIII-3,4 (1457-1666) mutant T1663R (human, UniProt P16144-2 1457-1666, T1663R); test: crystal structure
# T1 sequence (looked up): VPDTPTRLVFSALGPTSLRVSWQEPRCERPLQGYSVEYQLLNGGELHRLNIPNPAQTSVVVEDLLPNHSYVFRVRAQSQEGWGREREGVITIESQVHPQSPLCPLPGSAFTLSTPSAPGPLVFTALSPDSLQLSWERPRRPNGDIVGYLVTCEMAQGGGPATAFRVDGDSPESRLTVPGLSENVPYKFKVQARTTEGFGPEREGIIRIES
# [2] = molecular target: fluorescein-labeled BP230 peptide 26-47 (human) (UniProt Q03001); test: fluorescence polarisation
# [3] = molecular target: T2, fluorescein-labeled BP230 peptide 37-55 (human, UniProt Q03001-8 37-55); test: fluorescence polarisation
# T2 peptide (looked up): fluorescein-GPTLINSCISFGSESFDGH
# [4] = molecular target: T3, BP230 41-162 (human, UniProt Q03001-8 41-162, Oregon Green 488 on thiol groups); test: fluorescence polarisation
# T3 sequence (looked up): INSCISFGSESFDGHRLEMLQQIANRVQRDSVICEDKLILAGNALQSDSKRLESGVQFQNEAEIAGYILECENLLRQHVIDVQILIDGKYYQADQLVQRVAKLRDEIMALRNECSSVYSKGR
# [5] = molecular target: T4, BP230 10-162 T39D (human, UniProt Q03001-8 10-162, T39D, Oregon Green 488 on thiol groups); test: fluorescence polarisation
# T4 sequence (looked up): B2 chain with T30D, A37S
# [6] = molecular target: B1; test: fluorescence polarisation
# [7] = molecular target: B5; test: fluorescence polarisation
# [8] = molecular target: T5, β4-CS-FnIII-3,4 (1436-1666) T1663R (human, UniProt P16144-2 1436-1666, T1663R); test: fluorescence polarisation
# T5 sequence (looked up): B1 chain with T228R
binder,measurement,setting,value
"DSNENLLLVHCGPTLINSCISFGSESFDGH (peptide, UniProt Q03001-8 26-55, looked up) [unlabeled BP230 peptide 26-55]",binding result,[1],binds
B1,fold increase in Kd against the BP230 26-55 peptide,[2],5 fold
same,fold increase in Kd against the BP230 26-55 peptide,[3],3 fold
same,fold increase in Kd against the longer BP230 constructs,[4],5 fold
same,fold increase in Kd against WT BP230 10-162,[5],~3 fold
B2,binding result,[6],binds
B3,fold reduction in Kd against WT β4,[7],~8 fold
B4,fold increase in Kd against WT β4,[7],> 2 fold
B5,binding result,[8],binds
